Experimental data: patent publication US20220372112A1 (KEYMED BIOSCIENCES, published 2022)
Where a chain is given by its changes, count along the chain named.

T1: human Claudin 18.2 (human, UniProt P56856-2 1-261)
T1 construct: whole, on cells
T1 sequence (looked up): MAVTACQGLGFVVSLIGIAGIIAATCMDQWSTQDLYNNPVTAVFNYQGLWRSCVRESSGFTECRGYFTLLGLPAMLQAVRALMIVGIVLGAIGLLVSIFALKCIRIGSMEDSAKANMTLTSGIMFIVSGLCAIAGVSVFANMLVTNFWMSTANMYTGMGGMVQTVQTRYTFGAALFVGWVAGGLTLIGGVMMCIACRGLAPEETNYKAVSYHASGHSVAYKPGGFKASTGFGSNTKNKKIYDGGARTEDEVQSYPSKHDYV

T2: human Claudin 18.1 (human, UniProt P56856 1-261)
T2 construct: whole, on cells
T2 sequence (looked up): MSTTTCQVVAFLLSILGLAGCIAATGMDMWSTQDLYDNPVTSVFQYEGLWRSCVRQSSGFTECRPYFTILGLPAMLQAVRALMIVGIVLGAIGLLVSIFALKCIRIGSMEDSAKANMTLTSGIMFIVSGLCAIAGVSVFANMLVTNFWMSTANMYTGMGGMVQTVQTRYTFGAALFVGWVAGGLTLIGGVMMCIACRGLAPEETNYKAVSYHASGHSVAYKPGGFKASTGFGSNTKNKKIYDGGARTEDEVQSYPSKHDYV

B1: 15F9 (antibody, V domains shown)
VH: EIQLVQSGPELKKPGETVKISCKASGYTFTNYGINWVKQAPGKGLKWMGWINPNTGETTYAEEFKGRFALSWKTSASTAYLQINNLKNEDTATYFCARLYYGNRFDYWGQGTTLTVSS
VL: DIVMTQSPSSLTVTAGEKVTMSCKSSQSLLNSGNQRNYLTWYQQKPGQPPKLLIYWASTRESGVPDRFTGSGSGTDFTLTISSVQAEDLAVYYCQNAYYYPLTFGAGTKLEIK
notes: also called Clone 15F9; 15F9 Chimera
B2: 18A9 (antibody, V domains shown)
VH: QVQLQQSGREVVRPGTSVKVSCKPSGYAFTNYLIDWVKQRPGQGLEWIGGINPGSGDTVYNEKFKAKATLTADKSSMTANMQLSSLTSDDSAVYFCARRVRGNSFDSWGQGTLVTVSA
VL: B1 VL with T5S, R36K, T75K, V91L, A97N, Y99F, I112L
notes: also called Clone 18A9; 18A9 Chimera
B3: 18D10 (antibody, V domains shown)
VH: DVQLQESGPGLVKPSQSLSLTCTVTGYSITSNYAWNWIRQFPGNKLEWMGYINYSGNTNYNPSLKSRISITRDTSKNQFFLQLNSVTAEDTATYYCATSYYGNSFIYWGQGTLVTVSA
VL: B1 VL with R36K, Y99S, Y100F, L102W, A106G
notes: also called Clone 18D10; 18D10 Chimera
B4: 25F5 (antibody, V domains shown)
VH: QVQLKQSGAELVKPGASLKLSCKASGYTFTTYGINWVRQRPEQGLEWIGWIFPGDATTMYNEKFKGTATLTADKSSSTAYMQLSGLTSEDSAVYFCARFYYGNSFVDWGQGTLVTVSA
VL: B1 VL with R36K
notes: also called Clone 25F5
B5: 18G5 (antibody, V domains shown)
VH: B2 VH with Q1E, A79T
VL: B1 VL with T14R, S22T, L30F, I54L, S58T, T59A, T80S, A97V, Y99F
notes: also called Clone 18G5
B6: 13A8 (antibody, V domains shown)
VH: EVKLVESGGGLVRPGGSLKVSCAASGITFSRYAISWVRQTPEKRLEWVATISSGDSYTYYLDSVKGRFTISRDDAKNTLYLQMSSLRSEDTAMYYCGRLGYGNAMDYWGQGTSVTVSS
VL: B1 VL with D1N, V3M, R36K, A97D, Y99S
notes: also called Clone 13A8
B7: 19B2 (antibody, V domains shown)
VH: QVQLQQSGAELVKPGTSVKLSCKASGYSFTTYGLNWVRQRPKQGLEWIGWIFPGDGNVNYNEKFQGQATLTTDKSSSTAYMQLSRLTSEDSAVYFCARFYYGNSLNYWGQGTLVTVSA
VL: B1 VL with Q35L, Q48R, A97N, Y99F
notes: also called Clone 19B2
B8: 15A7 (antibody, V domains shown)
VH: QVQLQQSGAELVKPGYSVKLSCKASGYTFTNFGINWVRQRPEKGLEWIGWIFPGDGTTKYNENFKGKATLTTDKSSSTAYMQLSRLTSEDSAVYFCARFYYGNSFVNWGQGTLVTVSA
VL: B1 VL with M21L, S28T, R36K, Y55H, A97N, Y99F
notes: also called Clone 15A7
B9: 14H11 (antibody, V domains shown)
VH: EVQLVESGGGLVKPGGSLKLSCAVSGFTINNYGMSWVRQTPEKRLEWVATIIGGGSSTYYPDSLKGRFTISRDNAKNNLYLQMSSLRSEDTALYYCVRLYFGNSFAYWGQGTLVTVSA
VL: B1 VL with M21V, L30S, A97N, Y99F, I112L
notes: also called Clone 14H11
B10: 9A8 (antibody, V domains shown)
VH: B2 VH
VL: B1 VL with V3Q, P46T, S82N, A97N
notes: also called Clone 9A8
B11: 9D12 (antibody, V domains shown)
VH: B2 VH with Q1E, K63R, A66D, M77S, T78S
VL: B1 VL with E17Q, R36K, T75K, Y92F, A97N, Y99F, I112L
notes: also called Clone 9D12
B12: 8C11 (antibody, V domains shown)
VH: B8 VH with Y16A, N31T, K43Q, T57S, T58I, N63K, L83I, R85S, N107S
VL: DIVMTQSPSSLAVTAGEKVTMTCKSSQSLLNSGNQKNYLTWYQQRPGQPPKLLLYWASTRESGVPDRFTGSGSGTDFALTITSVQAEDLAVYYCQNDYTYPFTFGSGTKLEIK
notes: also called Clone 8C11

Target: T1, human Claudin 18.2
Test: flow cytometry (iQue) on cells, antibody from 100 nM in 5-fold steps; cell line not named in Example 5
Experimental: The cells at logarithmic growth phase were taken, blocked with 3% BSA for 30 minutes, plated at 5×10⁴ cells/100 μL into a U-shaped 96-well plate, centrifuged at 1100 rpm for 3 minutes, the supernatant was discarded, the cells were gently patted and loosed, 50 μL of antibody diluted according to the series was added to each well (antibody concentration starts from 100 nM, 5 times dilution in 8 series), incubated at 4° C. for 1 hour. After the incubation, 140 μL of 0.5% BSA was added to each well to wash 3 times, AF 647 APC anti-human secondary antibody was added with 30 μL/well and incubated at 4° C. for 40 minutes. After the incubation, 140 μL of 0.5% BSA was added to each well to wash 3 times, and finally resuspended each well with 50 μL PBS for iQue (Intellicyt, USA) detection (shown in Table 2).

| EC50 | Binder |
| --- | --- |
| 3.32 nM | B1 |
| 1.03 nM | B2 |
| 2.07 nM | B3 |

Target: T2, human Claudin 18.1
Test: flow cytometry on HEK293-Claudin 18.1 cells, chimeric IgG1
Experimental: (§1) The HEK293-Claudin 18.1 cells, HEK293-Claudin 18.2 cells and HEK293 cells at logarithmic growth phase were taken, after digesting, added at 5×10⁴ cells/100 μL to the U-shaped 96-well plate, centrifuged at 1100 rpm for 3 minutes, the supernatant was discarded, the cells were gently patted and loosed, 50 μL of antibody diluted according to the series was added to each well (antibody concentration starts from 100 nM, 5 times dilution in 8 series), and incubate at 4° C. for 1 hour. After the incubation, 140 μL 0.5% BSA was added to each well to wash 3 times, the secondary antibody AlexaFluro647 anti-human IgG (Jackson ImmunoResearch, catalog number: 109-606-170) was added with 30 μL/well, and incubated at 4° C. for 40 minutes. After the incubation, 140 μL 0.5% BSA was added to each well to wash 3 times, and finally resuspended each well with 50 μL PBS for flow cytometry (iQue Screener) detection.

| Binder | binding result |
| --- | --- |
| B1 | no binding (tested: 100 nM (highest concentration tested)) |
| B2 | no binding (tested: 100 nM (highest concentration tested)) |
| B4 | no binding (tested: 100 nM (highest concentration tested)) |
| B5 | no binding (tested: 100 nM (highest concentration tested)) |
| B6 | no binding (tested: 100 nM (highest concentration tested)) |
| B7 | no binding (tested: 100 nM (highest concentration tested)) |
| B3 | no binding (tested: 100 nM (highest concentration tested)) |
| B8 | no binding (tested: 100 nM (highest concentration tested)) |
| B9 | no binding (tested: 100 nM (highest concentration tested)) |
| B10 | no binding (tested: 100 nM (highest concentration tested)) |
| B11 | no binding (tested: 100 nM (highest concentration tested)) |
| B12 | no binding (tested: 100 nM (highest concentration tested)) |

Target: T1, human Claudin 18.2
Test: flow cytometry (iQue) on HEK293-Claudin 18.2 cells, chimeric IgG1
Experimental: as §1

| EC50 | Binder |
| --- | --- |
| 0.17 nM | B1 |
| 0.31 nM | B2 |
| 2.14 nM | B4 |
| 3.79 nM | B5 |
| 0.25 nM | B6 |
| 0.2 nM | B7 |
| 0.37 nM | B3 |
| 0.59 nM | B8 |
| 0.22 nM | B9 |
| 0.21 nM | B10 |
| 6.78 nM | B11 |
| 0.23 nM | B12 |
